Like-named read-outs stand apart in the source and are kept apart here. Marks after values point to notes of the source that are not given here.
Key:
break light A [1] = test: Molecular break light assay: cleavage of break light A by enediynes and Fe^+2-dependent agents; format: biochemical
Method: Samples were analyzed with a FluoroMax-2 spectrofluorometer equipped with DataMax for Windows (Instruments S. A., Inc.; Edison, N.J.) and the temperature controlled (30° C., unless otherwise noted) by a Haake Circulator DC10. All samples were filtered prior to analysis and analyzed via a timebase scan (λex=485 nm, λEm=517 nm) in a Suprasil quartz cuvette (10 mm path) fitted with a magnetic stirring bar in a total volume of 2 mL. […] Total cleavage of the labeled oligonucleotide, confirmed by polyacrylamide gel electrophoresis (PAGE), was defined as the maximum fluorescence emission possible under saturated cleaving conditions. Emission units were converted to the amount of labeled oligonucleotide used within a procedure, thereby equating labeled oligonucleotide degradation as a function of the emission of fluorescence.
Enediyne antibiotics calicheamicin and esperamicin at varying concentrations (0.31, 0.78, 1.6, 3.2, 15.9, and 31.7 nM) were incubated in 40 mM Tris-HCl (pH 7.5) with 3.2 nM of the calicheamicin-specific labeled molecular break light oligonucleotide (A). DNA cleavage was initiated with the addition of 1 μL 100 mM dithiothreitol (“DTT”) to produce a final concentration of 50 μM DTT, and the reaction was monitored over 10 minutes via spectrofluorometry.
Pseudo-first order kinetic parameters were utilized to determine the initial velocities at each given enediyne concentration. Specifically, graphical representation of the data was based upon equation 2 where [A]t is the concentration of cleaved oligonucleotide at a given time (t) and [A]0 is the initial concentration of oligonucleotide in the assay. Least squares analysis gave the slope (k), or rate, which was converted to V by the relationship in equation 3. The maximum velocity achieved (Vmax) was then selected from the range of concentrations examined.
ln[A]t=−kt+ln[A]0 [Equation 2]
Bleomycin, an Fe^+2-dependent nucleic acid cleavage agent, is a natural metabolite from Streptomyces verticillus. Blenoxane (a mixture containing approximately 70% bleomycin A2 and 30% bleomycin B2) was dissolved in water & optically standardized (ε291=1.7×10^4M^−1 cm^−1). Bleomycin mediated cleavage was adapted from procedures outlined by Giloni et al. J. Biol. Chem. 256: 8608-8615 (1981). Several different concentrations of bleomycin (200 nM, 100 nM, 50 nM, 25 nM, 12.5 nM, 5 nM, and 2.5 nM) were incubated in 50 mM sodium phosphate, 2.5 mM ascorbate, at pH 7.5 and 37° C. with 3.2 nM of the molecular break light A.
The reaction was initiated by the addition of 65 mM Fe(II) and monitored over 5 minutes. This protocol was repeated with the addition of 5 mM sodium ascorbate to the above conditions. Pseudo-first order kinetic parameters were utilized to determine the initial velocities at each given bleomycin concentration as previously described.
In a first assay, 3.2 nM break light A was incubated in 40 mM Tris HCl and 2.5 mM ascorbate at 37° C. and pH 7.5. Cleavage was initiated by addition of MPE/Fe(II) in a 1.2:1 molar ratio to various concentrations. Final Fe(II) concentrations were 8 μM, 4 μM, 2 μM, 1 μM, 500 nM, 250 nM, and 125 nM.
In a second assay, 32 nM molecular break light A was incubated in 40 mM Tris and 2.5 mM sodium ascorbate at pH 7.5 and 37° C. Cleavage was initiated by addition of MPE/Fe(II) in a 1.2:1 molar ratio to various concentrations. Final Fe(II) concentrations were 50 nM, 125 nM, 250 nM, 500 nM, 1 μM, and 2 μM.
In a third assay, 32 nM break light A (calicheamicin-specific molecular break light oligonucleotide) was incubated in 40 mM Tris and 2.5 mM sodium ascorbate at pH 7.5 and 37° C.

break light B [2] = test: Calicheamicin cleavage of break light B; format: biochemical; conditions: calicheamicin with DTT
[3] = test system: supercoiled pBlusecript plasmid DNA; test: Calicheamicin-induced cleavage of supercoiled plasmid DNA, protection by CalC (agarose gel); format: biochemical
Method: Prevention of cleavage by calicheamicin—protection by CalC was assessed. […] To test this theory, preliminary assays were performed with supercoiled pBlusecript plasmid DNA (“pBS”) as the template, and dithiothreitol (“DTT”) as the reductive initiator. […] Then 2.5 μL 10 mM DTT stock solution was added to the assay solution, and the assay was incubated an additional 1 hour at 37° C. DNA fragmentation was assessed by electrophoresis on a 1% agarose gel stained with ethidium bromide.
To test this theory, assays were performed with supercoiled pblusecript plasmid DNA (“pBS”) as the template, and dithiothreitol (“DTT”) as the reductive initiator. […] 2.5 μL 10 mM DTT stock solution was added to the assay solution, and the assay was incubated an additional 1 hour at 37° C.
DNA fragmentation was assessed by electrophoresis on a 1% agarose gel stained with ethidium bromide.

[4] = test system: dual fluorophoric-labeled dsDNA; conditions: 0.8 nM dual fluorophoric-labeled dsDNA, FCS spectrometer; cited from earlier work
molecular break light B = test: BamHI steady state kinetics and sensitivity limits with break light B; format: biochemical
Method: Samples were analyzed with a FluoroMax-2 spectrofluorometer equipped with DataMax for Windows (Instruments S. A., Inc.; Edison, N.J.) and the temperature controlled (30° C., unless otherwise noted) by a Haake Circulator DC10. All samples were filtered prior to analysis and analyzed via a timebase scan (λex=485 nm, λEm=517 nm) in a Suprasil quartz cuvette (10 mm path) fitted with a magnetic stirring bar in a total volume of 2 mL. Reactions were equilibrated to the incubation temperature before initiation of DNA cleavage as was evident by a steady background emission over 10 min. Total cleavage of the labeled oligonucleotide, confirmed by polyacrylamide gel electrophoresis (PAGE), was defined as the maximum fluorescence emission possible under saturated cleaving conditions. Emission units were converted to the amount of labeled oligonucleotide used within a procedure, thereby equating labeled oligonucleotide degradation as a function of the emission of fluorescence.
Determination of BamHI (10 units/μL) specific cleavage was performed in 6 mM TrisHCl, 100 mM NaCl, 6 mM MgCl2, and 1 mM DTT, at 37° C. and pH 7.5 with 3.2 nM of molecular break light B (FIG. 2B) and varying amounts of BamHI-specific oligonucleotide lacking the fluorophore and quenching moieties. Total substrate concentrations (including break light) were as follows: 389 nM, 196 nM, 81 nM, 42 nM, 11 nM, 7.5 nM, and 3.4 nM.
The reaction was initiated with 10 U BamHI enzyme and monitored via spectrofluorometry over a time course of fifteen minutes. The initial rate of DNA cleavage was determined from data within the first 100 seconds of initiation which was then adjusted according to equation 1. These adjusted values were utilized for the reciprocal plot from which the Michaelis-Menten kinetic parameters were determined.
Vact=Vobs([Sact]/[S*]) [Equation 1]
The steady-state kinetic parameters for a commercially available BamHI were determined. The dependence of BamHI hydrolysis on substrate concentration was investigated using mixtures of a fixed amount of molecular break light B and varying amounts of an analogous non-labeled oligonucleotide (lacking both FAM and DABCYL) over a wide substrate concentration range. The apparent competitive inhibition observed due to phenomenon of “carrier dilution” was corrected to give the appropriate kinetic parameters. See, e.g., Roy, et al. (1994).
The observed velocity (Vapp) is related to the actual velocity (Vact) by equation [I] where [Sact] and [S*] are the total substrate concentration and B concentration, respectively. The reciprocal plot after correction for this “carrier dilution” phenomenon is illustrated in FIG. 4b.
A recent fluorescence correlation spectroscopy (FCS) assay for the restriction endonuclease EcoRI using 0.8 nM of dual fluorophoric-labeled dsDNA and a highly specialized FCS spectrometer, reported a detection limit of 1.6 pM EcoRI. Kettling, U., et al. (1998). Under the conditions containing even slightly less oligonucleotide (0.68 nM molecular break light), cleavage was easily detectable to 3.7 pM BamHI. […] This assay was performed undert the same conditions as the other assays in this Example.

break light A [5] = test: BamHI / DNaseI digestion of break light A (proof of principle); format: biochemical; conditions: 3.2 nM break light A, 37° C.; 100 U BamHI or 10 U DNaseI
Method: (§1) The cleavage of molecular break light probes A and B by BamHI was investigated. In a first assay, break light A and break light B were each incubated with 100 U BamHI. As a control, break light B was also incubated without enzyme. The incubations occurred at 37° C. in a solution containing 10 mM TrisHCl, 50 mM NaCl, 10 mM MgCl2, and 1 mM DTT at pH 7.9.
(§2) In a second assay, break light A and break light B were each incubated with 10 U DnaseI. As a control, break light A was also incubated without enzyme. The incubations occurred at 37° C. in a solution containing 40 mM Tris HCl, 10 mM MgSO4, and 1 mM CaCl2 at pH 8.0.

[6] = test system: oligonucleotide substrate; conditions: previously reported values for BamHI; cited from earlier work
break light B [7] = test: BamHI / DNaseI digestion of break light B (proof of principle); format: biochemical
Method: as §1, §2

Molecule: CCN[C@H]1CO[C@@H](O[C@H]2[C@H](O[C@H]3C#C/C=C/C#C[C@@]4(O)CC(=O)C(NC(=O)OC)=C3/C4=C\CSSSC)O[C@H](C)[C@@H](NO[C@H]3C[C@H](O)[C@H](SC(=O)c4c(C)c(I)c(O[C@@H]5O[C@@H](C)[C@H](O)[C@@H](OC)[C@H]5O)c(OC)c4OC)[C@@H](C)O3)[C@@H]2O)C[C@@H]1OC [Calicheamicinγ1^l, calicheamicin γ1^I]
- detection of agent by the assay (sensitivity range) (break light A [1]; 3.2 nM break light A, conditions described): pM range
- maximum fluorescence upon cleavage, compared with DNaseI (break light A [1]; 3.2 nM break light A, excess DTT): identical to that observed with DNaseI
- Turnover (Vmax/[Agent]) (break light A [1]; [DNA]total = 3.2 nM): 0.007 s⁻¹
- Vmax (break light A [1]; [DNA]total = 3.2 nM, 37° C.): 0.011 ± 0.002^d nM sec^−1
- Comparison to EDTA (fold enhancement over EDTA turnover) (break light A [1]; [DNA]total = 3.2 nM, MPE as common agent): 4.8 × 10^5 fold
- enhancement of cleavage efficiency over bleomycin (break light A [1]; from Table 1): ~10 fold
- rate of cleavage of break light B compared with break light A (break light B [2]): rate identical to that of break light A
- DNA cleavage ([3]; calicheamicin in the absence of DTT (lane a)): no DNA cleavage
- DNA cleavage ([3]; presence of DTT and calicheamicin (lane c)): efficient cleavage

Molecule: EcoRI: restriction endonuclease
- detection limit [4]: 1.6 pM

B1: BamHI: restriction endonuclease, commercially available (protein, UniProt P23940 1-213, looked up)
Type II restriction enzyme …: MEVEKEFITDEAKELLSKDKLIQQAYNEVKTSICSPIWPATSKTFTINNTEKNCNGVVPIKELCYTLLEDTYNWYREKPLDILKLEKKKGGPIDVYKEFIENSELKRVGMEFETGNISSAHRSMNKLLLGLKHGEIDLAIILMPIKQLAYYLTDRVTNFEELEPYFELTEGQPFIFIGFNAEAYNSNVPLIPKGSDGMSKRSIKKWKDKVENK
- detection limit (molecular break light B): 0.12 pM
- detection limit (cleavage easily detectable to) (molecular break light B; 0.68 nM molecular break light): 3.7 pM
- Vmax (molecular break light B; 10 U BamHI, 3.2 nM break light B plus non-labeled oligonucleotide, 37° C., pH 7.5): 0.024 ± 0.001 nM/s
- Km (molecular break light B; 10 U BamHI, break light B plus non-labeled oligonucleotide, 37° C., pH 7.5): 8.9 ± 0.5 nM
- Comparison to EDTA (fold enhancement over EDTA turnover) (molecular break light B; BamHI, break light B): 4.8 × 10^5 fold
- Turnover (Vmax/[Agent]; also known as kcat) (molecular break light B; BamHI, break light B): 0.007^c sec^−1
- detection limit (molecular break light B; molecular break light concentration 34 nM): 0.12 pM
- change in fluorescence intensity over time (break light A [5]): no change
- Km [6]: 0.4 nM
- V max, previously reported [6]: 0.009 nM/s
- change in fluorescence intensity over time (break light B [7]; 3.2 nM break light B, 37° C., 100 U BamHI or 10 U DNaseI): increase of fluorescence
- fluorescence maximum intensity upon complete cleavage, relative to DNaseI (break light B [7]; same concentration of molecular break light): 75%

Source: US20020187484A1, “Molecular break lights probes for detecting nucleotide cleavage” (priority 2000, published 2002)
